Test results taken from patent publication US20120316071A1 (published 2012).
Changes are numbered by the printed parent chain. Names may count otherwise.

B1: Fab VH5-51_IGHD5-18*01>3_IGHJ4*01 G100K/G104T (H:KT) & V3-4_IGLJ1*01 S28A (Fab, V domains shown)
VH: EVQLVQSGAEVKKPGESLKISCKGSGYSFTSYWIGWVRQMPGKGLEWMGIIYPGDSDTRYSPSFQGQVTISADKSISTAYLQWSSLKASDTAMYYCARRKYSYTYDYFDYWGQGTLVTVSS
VL: QTVVTQEPSFSVSPGGTVTLTCGLSSGAVSTSYYPSWYQQTPGQAPRTLIYSTNTRSSGVPDRFSGSILGNKAALTITGAQADDESDYYCVLYMGSGISYVFGTGTKVTVL
notes: Fab expressed in E. coli; Plasmid A adds CH1 with His6 and Flag tags to the heavy chain; Plasmid E adds lambda CL to the light chain; also called G100K/G104T & S28A (light chain)
B2: Fab VH5-51_IGHD5-18*01>3_IGHJ4*01 G100K/G104T (H:KT) & V3-4_IGLJ1*01 S32A (Fab, V domains shown)
VH: B1 VH
VL: B1 VL with A28S, S32A
notes: Fab expressed in E. coli; Plasmid A adds CH1 with His6 and Flag tags to the heavy chain; Plasmid E adds lambda CL to the light chain; also called G100K/G104T & S32A
B3: Fab VH5-51_IGHD5-18*01>3_IGHJ4*01 G100K/G104T (H:KT) & V3-4_IGLJ1*01 V29A (Fab, V domains shown)
VH: B1 VH
VL: B1 VL with A28S, V29A
notes: Fab expressed in E. coli; Plasmid A adds CH1 with His6 and Flag tags to the heavy chain; Plasmid E adds lambda CL to the light chain; also called G100K/G104T & V29A
B4: Fab VH5-51_IGHD5-18*01>3_IGHJ4*01 G100K/G104T (H:KT) & V3-4_IGLJ1*01 S30A (Fab, V domains shown)
VH: B1 VH
VL: B1 VL with A28S, S30A
notes: Fab expressed in E. coli; Plasmid A adds CH1 with His6 and Flag tags to the heavy chain; Plasmid E adds lambda CL to the light chain; also called G100K/G104T & S30A
B5: Fab VH5-51_IGHD5-18*01>3_IGHJ4*01 G100K/G104T (H:KT) & V3-4_IGLJ1*01 Y33A (Fab, V domains shown)
VH: B1 VH
VL: B1 VL with A28S, Y33A
notes: Fab expressed in E. coli; Plasmid A adds CH1 with His6 and Flag tags to the heavy chain; Plasmid E adds lambda CL to the light chain; also called G100K/G104T & Y33A
B6: Fab VH5-51_IGHD5-18*01>3_IGHJ4*01 G100K/G104T (H:KT) & V3-4_IGLJ1*01 S36A (Fab, V domains shown)
VH: B1 VH
VL: B1 VL with A28S, S36A
notes: Fab expressed in E. coli; Plasmid A adds CH1 with His6 and Flag tags to the heavy chain; Plasmid E adds lambda CL to the light chain; also called G100K/G104T & S36A
B7: Fab VH5-51_IGHD5-18*01>3_IGHJ4*01 G100K/G104T (H:KT) & V3-4_IGLJ1*01 P35A (Fab, V domains shown)
VH: B1 VH
VL: B1 VL with A28S, P35A
notes: Fab expressed in E. coli; Plasmid A adds CH1 with His6 and Flag tags to the heavy chain; Plasmid E adds lambda CL to the light chain; also called G100K/G104T & P35A
B8: Fab VH5-51_IGHD5-18*01>3_IGHJ4*01 G100K/G104T (H:KT) & V3-4_IGLJ1*01 L24A (Fab, V domains shown)
VH: B1 VH
VL: B1 VL with L24A, A28S
notes: Fab expressed in E. coli; Plasmid A adds CH1 with His6 and Flag tags to the heavy chain; Plasmid E adds lambda CL to the light chain; also called G100K/G104T & L24A
B9: Fab VH5-51_IGHD5-18*01>3_IGHJ4*01 G100K/G104T (H:KT) & V3-4_IGLJ1*01 S26A (Fab, V domains shown)
VH: B1 VH
VL: B1 VL with S26A, A28S
notes: Fab expressed in E. coli; Plasmid A adds CH1 with His6 and Flag tags to the heavy chain; Plasmid E adds lambda CL to the light chain; also called G100K/G104T & S26A
B10: Fab VH5-51_IGHD5-18*01>3_IGHJ4*01 G100K/G104T (H:KT) & V3-4_IGLJ1*01 S25A (Fab, V domains shown)
VH: B1 VH
VL: B1 VL with S25A, A28S
notes: Fab expressed in E. coli; Plasmid A adds CH1 with His6 and Flag tags to the heavy chain; Plasmid E adds lambda CL to the light chain; also called G100K/G104T & S25A
B11: Fab VH5-51_IGHD5-18*01>3_IGHJ4*01 G100K/G104T (H:KT) & V3-4_IGLJ1*01 Y34A (Fab, V domains shown)
VH: B1 VH
VL: B1 VL with A28S, Y34A
notes: Fab expressed in E. coli; Plasmid A adds CH1 with His6 and Flag tags to the heavy chain; Plasmid E adds lambda CL to the light chain; also called G100K/G104T & Y34A
B12: Fab VH5-51_IGHD5-18*01>3_IGHJ4*01 G100K/G104T (H:KT) & V3-4_IGLJ1*01 G27A (Fab, V domains shown)
VH: B1 VH
VL: B1 VL with G27A, A28S
notes: Fab expressed in E. coli; Plasmid A adds CH1 with His6 and Flag tags to the heavy chain; Plasmid E adds lambda CL to the light chain; also called G100K/G104T & G27A
B13: Fab VH5-51_IGHD5-18*01>3_IGHJ4*01 G100K/G104T (H:KT) & V3-4_IGLJ1*01 T31A (Fab, V domains shown)
VH: B1 VH
VL: B1 VL with A28S, T31A
notes: Fab expressed in E. coli; Plasmid A adds CH1 with His6 and Flag tags to the heavy chain; Plasmid E adds lambda CL to the light chain; also called G100K/G104T & T31A
B14: Fab VH1-46_IGHD6-6*01_IGHJ1*01 & L6_IGKJ1*01 (Fab, V domains shown)
VH: QVQLVQSGAEVKKPGASVKVSCKASGYTFTSYYMHWVRQAPGQGLEWMGIINPSGGSTSYAQKFQGRVTMTRDTSTSTVYMELSSLRSEDTAVYYCAREEYSSSSAEYFQHWGQGTLVTVSS
VL: not shown
notes: Tested as a Fab made in E. coli; VH was cloned into Plasmid A (CH1 constant region, His6 and Flag tags) and the kappa VL into Plasmid C (kappa CL); also called parent "Hit" Fab; parental
B15: Fab VH1-46_IGHD6-6*01_IGHJ1*01 E100A & L6_IGKJ1*01 (Fab, V domains shown)
VH: B14 VH with E100A
VL: not shown
notes: Heavy chain CDR3 alanine mutant of the parent Fab; Fab format with CH1, kappa CL, His6 and Flag tags from the expression plasmids

biological target: T1, Recombinant Human DLL4 (R&D Systems Cat#1506-D4/CF) (human, UniProt Q9NR61 27-524); test: ECL (Meso Scale Discovery) multispot binding assay, DLL4 immobilised, Fab at 100 nM
T1 construct: Bought recombinant protein; also called delta-like protein 4; Delta-like 4

Binder	ECL signal
B1	11500
B2	10400
B3	9320
B4	10300
B5	7700
B6	9690
B7	8260
B8	9630
B9	11700
B10	10200
B11	2200
B12	10700
B13	13500

biological target: T2, Recombinant Human DLL4 (human, UniProt Q9NR61 27-524); test: ECL (MSD) 96-well plate assay; plate coated with 30 ug/mL DLL4; 0.02 uM Fab
T2 construct: Bought recombinant protein (R&D Systems Cat#1506-D4/CF); also called delta-like protein 4; Delta-like 4

Binder	ECL signal	Signal/Noise
B14	8710	23
B15	1300	3.4

biological target: T2, Recombinant Human DLL4; test: ECL (MSD) 96-well plate assay; plate coated with 15 ug/mL DLL4; 0.004 uM Fab

Binder	ECL signal	Signal/Noise
B14	4260	29.2
B15	536	3.7
